The values below come from patent US10800847.

In test [1] the target is HLA-A*6901 (A69) single antigen on Luminex beads (human). In words: Luminex single antigen bead assay, iBeads (#6), IVIg 1:4.
The target in test [2] is HLA-A*8001 (A80) single antigen on Luminex beads (human). The test is described as above.
Test [3] deals with HLA-A*7401 (A74) single antigen on Luminex beads (human). The test is described as above.
Test [4] concerns the target HLA-A*6802 (A68) single antigen on Luminex beads (human). Described as above.
Test [5] addresses HLA-Cw*0102 (Cw1) (human). The test is described as follows: Luminex, iBeads (#6), 1:4.
Test [6] addresses HLA-Cw*0202 (Cw2) (human). In words: Luminex, iBeads (#6), 1:4.
In test [7] the target is Albumin (negative control beads) (human or bovine). The test is described as follows: Luminex, iBeads (#6), 1:4.
The target in test [8] is HLA-Cw*0302 (Cw10) (human). In words: Luminex, iBeads (#6), 1:4.
Test [9] concerns the target HLA-Cw*0401 (Cw4) (human). The test is described as follows: Luminex, iBeads (#6), 1:4.
Test [10] deals with HLA-Cw*1203 (Cw12) (human). The test is described as follows: Luminex, iBeads (#6), 1:4.
Test [11] concerns the target HLA-Cw*0304 (Cw10) (human). The test is described as follows: Luminex, iBeads (#6), 1:4.
The target in test [12] is HLA-Cw*0303 (Cw9) (human). In words: Luminex, iBeads (#6), 1:4.

Turning to “IVIg Sandoglobulin (Novartis, Basel, Switzerland) (antibody)”, the MFI amounted to 788 MFI in test [1]; 564 MFI in test [2]; 316 MFI in test [3]; 596 MFI in [4]; 511 MFI in [5]; 719 MFI in test [6]. In addition, the MFI in [7] is 667 MFI; in test [8], 522 MFI; in test [9], 601 MFI; in test [10], 636 MFI; in test [11], 520 MFI; in [12], 500 MFI.
